Assay results published in paper PMC10440729 (Journal of the American Chemical Society, 2022).

Columns and labels:
[1] = DOSY NMR diffusion coefficient / oligomerization state; assay type: physicochemical; conditions: 4 °C, suggests a mixture of dimers and hexamers
[2] = reported value, cited from earlier work
[3] = test system: STZ-induced C57BL/6J diabetic mouse model; test: Blood glucose lowering in STZ-induced diabetic mice; assay type: in vivo; conditions: 5 IU insulin/kg subcutaneous, blood glucose after 4 hours, n = 3

| Substance | diffusion coefficient (D) [1] | reported D of dimers ([2]; insulin dimers) | reported D of hexamers ([2]; insulin hexamers) | duration of blood glucose response [3] |
| --- | --- | --- | --- | --- |
| insulin | ~ 1 × 10^−6 cm^2/s | 1.22 × 10^−6 cm^2/s | 0.87 × 10^−6 cm^2/s | – |
| 2A-S-Ins: discrete 2A IEG polytriazole (all S) conjugated to N-terminus of insulin chain B by SPAAC | – | – | – | longer-lasting effects than Lantus |
